Columns and labels:
Human VSIG4-L-Fc [1] = target: T1, Human VSIG4-L-Fc (human); test: ELISA, Fab P.E. 1:5 on coated antigen;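 note: mouse Fab P.E. samples in 1% skimmed milk PBS, bound to antigen-coated wells for 1 h at room temperature, read as absorbance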
T1 construct: also called hVSIG4-L-Fc; hVSIG4-L

Human VSIG4-S-Fc [2] = target: T2, Human VSIG4-S-Fc (human); test: ELISA, Fab P.E. 1:5 on coated antigen;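 note: mouse Fab P.E. samples in 1% skimmed milk PBS, bound to antigen-coated wells for 1 h at room temperature, read as absorbance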
T2 construct: short isoform ECD fused to human Fc1; also called hVSIG4-S

[3] = target: T3, Cynomolgus Monkey VSIG4-L-His (cynomolgus monkey); test: ELISA, Fab P.E. 1:5 on coated antigen;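 note: mouse Fab P.E. samples in 1% skimmed milk PBS, bound to antigen-coated wells for 1 h at room temperature, read as absorbance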
T3 construct: ECD with His tag; also called cyVSIG4-L; cyno VSIG4-L-His
T3 chain: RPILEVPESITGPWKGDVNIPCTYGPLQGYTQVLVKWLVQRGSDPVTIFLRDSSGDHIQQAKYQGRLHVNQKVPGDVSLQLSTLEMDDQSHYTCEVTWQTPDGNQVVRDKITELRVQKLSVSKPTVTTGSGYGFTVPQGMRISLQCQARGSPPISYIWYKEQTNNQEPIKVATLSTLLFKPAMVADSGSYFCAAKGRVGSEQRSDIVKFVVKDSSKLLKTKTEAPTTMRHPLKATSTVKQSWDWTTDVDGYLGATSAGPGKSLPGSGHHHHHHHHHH

Human VSIG4-L-Fc [4] = target: T1, Human VSIG4-L-Fc; test: blocking ELISA, biotin-C3b on coated hVSIG4-L-Fc
Human VSIG4-L-His [5] = target: T4, Human VSIG4-L-His (human, UniProt Q9Y279 20-283); test: SPR (Biacore T200), Fab P.E. 1:5 over immobilised antigen
T4 construct: long isoform ECD with His tag; also called hVSIG4-L
T4 sequence: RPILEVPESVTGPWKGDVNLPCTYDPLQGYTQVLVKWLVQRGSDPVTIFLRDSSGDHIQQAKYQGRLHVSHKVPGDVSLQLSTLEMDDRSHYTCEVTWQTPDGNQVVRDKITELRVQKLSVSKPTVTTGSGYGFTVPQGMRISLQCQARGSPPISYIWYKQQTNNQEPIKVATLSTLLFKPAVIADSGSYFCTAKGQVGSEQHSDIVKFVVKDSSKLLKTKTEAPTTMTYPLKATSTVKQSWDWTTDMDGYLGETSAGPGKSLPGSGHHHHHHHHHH

Human VSIG4-L-His [6] = target: T4, Human VSIG4-L-His; test: SPR (FJB)
[7] = target: T3, Cynomolgus Monkey VSIG4-L-His; test: SPR (FJB)
Human VSIG4-L-Fc [8] = target: T1, Human VSIG4-L-Fc; test: ligand blocking of C3b, IgG
Human VSIG4-L-Fc [9] = target: T1, Human VSIG4-L-Fc; test: ligand blocking of iC3b, IgG
Human VSIG4-L-Fc [10] = target: T1, Human VSIG4-L-Fc; test: ELISA, IgG 50 nM on coated antigen;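 note: Mouse-human chimeric IgG4 antibodies incubated 1 h on plate-coated VSIG4 proteins, bound IgG detected with HRP-labelled anti-human IgG, irrelevant antibody and protein as specificity controls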
Human VSIG4-S-Fc [11] = target: T2, Human VSIG4-S-Fc; test: ELISA, IgG 50 nM on coated antigen;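 note: Mouse-human chimeric IgG4 antibodies incubated 1 h on plate-coated VSIG4 proteins, bound IgG detected with HRP-labelled anti-human IgG, irrelevant antibody and protein as specificity controls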
[12] = target: T3, Cynomolgus Monkey VSIG4-L-His; test: ELISA, IgG 50 nM on coated antigen;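 note: Mouse-human chimeric IgG4 antibodies incubated 1 h on plate-coated VSIG4 proteins, bound IgG detected with HRP-labelled anti-human IgG, irrelevant antibody and protein as specificity controls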
Mouse VSIG4-His = target: T5, Mouse VSIG4-His (mouse); test: ELISA, IgG 50 nM on coated antigen;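 note: Mouse-human chimeric IgG4 antibodies incubated 1 h on plate-coated VSIG4 proteins, bound IgG detected with HRP-labelled anti-human IgG, irrelevant antibody and protein as specificity controls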
T5 construct: ECD with His tag; also called mVSIG4
T5 chain: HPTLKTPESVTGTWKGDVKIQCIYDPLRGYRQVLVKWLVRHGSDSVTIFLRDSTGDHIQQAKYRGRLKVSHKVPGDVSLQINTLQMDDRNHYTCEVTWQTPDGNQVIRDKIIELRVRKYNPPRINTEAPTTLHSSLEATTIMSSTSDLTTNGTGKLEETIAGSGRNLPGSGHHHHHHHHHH

Human VSIG4-L-His [13] = target: T4, Human VSIG4-L-His; test: BLI, IgG on AHC sensor, antigen 100 nM
[14] = target: T3, Cynomolgus Monkey VSIG4-L-His; test: BLI, IgG on AHC sensor, antigen 100 nM
Human VSIG4-L-His [15] = target: T4, Human VSIG4-L-His; test: BLI (Octet), IgG on AHC sensor, antigen 100 nM
Human VSIG4-S-His = target: T6, Human VSIG4-S-His (human, UniProt Q9Y279 20-283); test: BLI (Octet), IgG on AHC sensor, antigen 100 nM
T6 construct: short isoform ECD with His tag; also called hVSIG4-S; VISG4-S-His
T6 sequence: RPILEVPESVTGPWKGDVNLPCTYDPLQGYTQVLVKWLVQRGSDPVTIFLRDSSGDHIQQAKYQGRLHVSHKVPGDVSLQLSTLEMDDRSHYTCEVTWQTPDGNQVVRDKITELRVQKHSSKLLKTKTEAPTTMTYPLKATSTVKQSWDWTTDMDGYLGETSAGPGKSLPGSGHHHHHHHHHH

[16] = target: T3, Cynomolgus Monkey VSIG4-L-His; test: BLI (Octet), IgG on AHC sensor, antigen 100 nM
[17] = target: T7, Human VSIG4-L-CHO (human VSIG4 long isoform on CHO-K1 cells) (human, UniProt Q9Y279 20-399); test: flow cytometry, CHO-K1 cells expressing hVSIG4-L
T7 construct: also called hVSIG4-L (flow cytometry)
T7 sequence: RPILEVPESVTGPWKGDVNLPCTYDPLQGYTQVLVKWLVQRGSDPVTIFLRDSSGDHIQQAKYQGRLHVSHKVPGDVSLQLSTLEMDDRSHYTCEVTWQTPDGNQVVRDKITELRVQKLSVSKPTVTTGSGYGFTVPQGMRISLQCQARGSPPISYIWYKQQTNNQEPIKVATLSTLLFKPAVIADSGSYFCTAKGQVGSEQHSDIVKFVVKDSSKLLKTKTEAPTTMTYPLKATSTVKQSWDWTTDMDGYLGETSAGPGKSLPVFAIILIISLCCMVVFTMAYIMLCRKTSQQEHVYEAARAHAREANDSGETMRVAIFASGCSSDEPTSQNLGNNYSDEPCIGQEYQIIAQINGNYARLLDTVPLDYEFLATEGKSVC

Human VSIG4-L-Fc [18] = target: T1, Human VSIG4-L-Fc; test: BLI binning on hVSIG4-L-Fc, competitor 12A08 first;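 note: normalized to binding of second antibody without first competitor antibody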
Human VSIG4-L-Fc [19] = target: T1, Human VSIG4-L-Fc; test: BLI binning on hVSIG4-L-Fc, competitor 12A12 first;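 note: normalized to binding of second antibody without first competitor antibody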
Human VSIG4-L-Fc [20] = target: T1, Human VSIG4-L-Fc; test: BLI binning on hVSIG4-L-Fc, competitor 13H11 first;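 note: normalized to binding of second antibody without first competitor antibody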
Human VSIG4-L-Fc [21] = target: T1, Human VSIG4-L-Fc; test: BLI binning on hVSIG4-L-Fc, competitor 14C05 first;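 note: normalized to binding of second antibody without first competitor antibody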
Human VSIG4-L-Fc [22] = target: T1, Human VSIG4-L-Fc; test: BLI binning on hVSIG4-L-Fc, competitor 14D12 first;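 note: normalized to binding of second antibody without first competitor antibody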
Human VSIG4-L-Fc [23] = target: T1, Human VSIG4-L-Fc; test: BLI binning on hVSIG4-L-Fc, competitor 15A06 first;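 note: normalized to binding of second antibody without first competitor antibody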
Human VSIG4-L-Fc [24] = target: T1, Human VSIG4-L-Fc; test: BLI binning on hVSIG4-L-Fc, competitor 15C03 first;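 note: normalized to binding of second antibody without first competitor antibody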
Human VSIG4-L-Fc [25] = target: T1, Human VSIG4-L-Fc; test: BLI binning on hVSIG4-L-Fc, competitor 15C04 first;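 note: normalized to binding of second antibody without first competitor antibody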
Human VSIG4-L-Fc [26] = target: T1, Human VSIG4-L-Fc; test: BLI binning on hVSIG4-L-Fc, competitor 16E03 first;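 note: normalized to binding of second antibody without first competitor antibody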
Human VSIG4-L-Fc [27] = target: T1, Human VSIG4-L-Fc; test: BLI binning on hVSIG4-L-Fc, competitor 16E10 first;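 note: normalized to binding of second antibody without first competitor antibody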
Human VSIG4-L-Fc [28] = target: T1, Human VSIG4-L-Fc; test: ligand competition ELISA (FJB), blocked ligand C3b
Human VSIG4-L-Fc [29] = target: T1, Human VSIG4-L-Fc; test: ligand competition ELISA (FJB), blocked ligand iC3b
[30] = target: T7, Human VSIG4-L-CHO (human VSIG4 long …); test: flow cytometry (FJB), 200 nM mAb, huVSIG4-L CHO-K1 cells
[31] = target: T7, Human VSIG4-L-CHO (human VSIG4 long …); test: flow cytometry (FJB), 200 nM mAb, huVSIG4-L CHO-K1 over parental CHO-K1
Human VSIG4-L-Fc [32] = target: T1, Human VSIG4-L-Fc; test: blocking ELISA, biotin-iC3b on coated hVSIG4-L-Fc

T1 sequence (chain, as listed by the source limits assumed): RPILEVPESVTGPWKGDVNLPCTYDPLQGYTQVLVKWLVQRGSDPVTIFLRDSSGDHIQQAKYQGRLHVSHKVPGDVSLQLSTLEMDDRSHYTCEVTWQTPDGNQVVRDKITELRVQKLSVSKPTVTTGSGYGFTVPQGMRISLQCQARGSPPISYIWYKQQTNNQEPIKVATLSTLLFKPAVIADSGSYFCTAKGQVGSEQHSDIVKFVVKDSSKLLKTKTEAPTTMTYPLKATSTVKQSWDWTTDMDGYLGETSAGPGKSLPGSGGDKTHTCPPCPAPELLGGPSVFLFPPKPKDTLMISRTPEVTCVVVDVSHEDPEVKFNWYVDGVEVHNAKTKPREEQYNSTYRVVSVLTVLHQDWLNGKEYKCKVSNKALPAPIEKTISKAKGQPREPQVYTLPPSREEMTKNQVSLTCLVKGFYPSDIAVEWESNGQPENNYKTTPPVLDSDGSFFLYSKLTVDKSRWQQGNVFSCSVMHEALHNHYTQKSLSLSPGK

B1: 15C03 mouse Fab (periplasmic extract) (Fab, V domains shown)
VH: EVKLLESGPGLVKPSQSLSLTCTVTGYSITSDYAWNWIRQFPGNKLEWMGYISYSGSTRYNPSLKSRISITRDTSNNQFFLQLNSVTTEDTATYYCARSGYAAMDYWGQGTSVTVSS
VL: ENVLTQSPAIMSASPGEKVTMTCRASSSVSSSYLHWYQQKSGASPKLWIYSTSNLASGVPARFSGSGSGTSYSLTISSVEAEDAATYYCQQYSGYPLTFGSGTKLEIK
notes: mouse Fab with C-terminal His6-c-myc tag
- ELISA OD450 (Human VSIG4-L-Fc [1]): 4.2 OD450
- ELISA OD450 (Human VSIG4-S-Fc [2]): 4.05 OD450
- ELISA OD450 [3]: 0.05 OD450
- Percent Blocking C3b (Human VSIG4-L-Fc [4]): 42.7%
- koff (Human VSIG4-L-His [5]): 0.0076 s⁻¹

B2: 14D12 mouse/human chimeric IgG4 (S228P) kappa (antibody, V domains shown)
VH: QIQLVQSGPELKKPGETVKISCKASGYTFTNYGMNWVKQTPGKGLKWMGLINTYTGEPTYADDFKGRFAFSLETSASTAYLQINNLKNEDMATYFCARERIYGYLHYFDYWGQGTTLTVSS
VL: DVVMTQTPASLAVSLGQRATISCKASQSVDYDGDSYMNWYQQKPGQPPKLLIYAASNLESGIPARFSGSGSGTDFTLNIHPVEEEDAATYYCQQSNEDPRTFGGGTKLEIKR
- Kd (Human VSIG4-L-His [6]): 10.5 nM
- Kd [7]: 4.4 nM
- Percent Blocking C3b (Human VSIG4-L-Fc [8]): 97%
- Percent Blocking iC3b (Human VSIG4-L-Fc [9]): 98%
- ELISA OD450 (Human VSIG4-L-Fc [10]): 4.53 OD450
- ELISA OD450 (Human VSIG4-S-Fc [11]): 3.43 OD450
- ELISA OD450 [12]: 4.52 OD450
- ELISA OD450 (Mouse VSIG4-His): 0.05 OD450
- KD relative to parental chimera (Human VSIG4-L-His [13]): 1 fold
- KD relative to parental chimera [14]: 1 fold
- Kd (Human VSIG4-L-His [15]): 21.5 nM
- Kd (Human VSIG4-S-His): 28.7 nM
- Kd [16]: 16.1 nM
- EC50 [17]: 2.8 nM
- normalized maximum binding nm shift (Human VSIG4-L-Fc [18]): 0.73 normalized
- normalized maximum binding nm shift (Human VSIG4-L-Fc [19]): 0.75 normalized
- normalized maximum binding nm shift (Human VSIG4-L-Fc [20]): 0.69 normalized
- normalized maximum binding nm shift (Human VSIG4-L-Fc [21]): 0.12 normalized
- normalized maximum binding nm shift (Human VSIG4-L-Fc [22]): 0.08 normalized
- normalized maximum binding nm shift (Human VSIG4-L-Fc [23]): 0.75 normalized
- normalized maximum binding nm shift (Human VSIG4-L-Fc [24]): 0.59 normalized
- normalized maximum binding nm shift (Human VSIG4-L-Fc [25]): 0.8 normalized
- normalized maximum binding nm shift (Human VSIG4-L-Fc [26]): 0.68 normalized
- normalized maximum binding nm shift (Human VSIG4-L-Fc [27]): 0.93 normalized
- IC50 (Human VSIG4-L-Fc [28]): 0.8 nM
- IC50 (Human VSIG4-L-Fc [29]): 0.6 nM
- Binding (200 nM) MFI [30]: 36400 MFI
- Binding (200 nM) Fold-Over-Parental [31]: 112 fold

B3: 12A08 mouse Fab (periplasmic extract) (Fab, V domains shown)
VH: EVMLVESGGGLVKPGGSLKLSCAASGFTFDDFYMYWVRQTPEKRLEWVASISDGGTYTYYPDSVKGRFTISRDNAKNTLYLQLSSLKSEDTAMYYCARGVDKYYYAMDYWGQGTSVTVSS
VL: QILLTQSPAIMSASPGEKVTITCSASSSVSYMHWFQQKPGTSPKLWIYSTSNLASGVPARFSGSGSGTSYSLTISRMEAEDAATYYCQQRSSYPLTFGAGTKLELK
notes: as for B1
- ELISA OD450 (Human VSIG4-L-Fc [1]): 4.45 OD450
- ELISA OD450 (Human VSIG4-S-Fc [2]): 4.09 OD450
- ELISA OD450 [3]: 4.27 OD450
- Percent Blocking C3b (Human VSIG4-L-Fc [4]): 57.6%
- Percent Blocking iC3b (Human VSIG4-L-Fc [32]): 53.4%
- koff (Human VSIG4-L-His [5]): 0.013 s⁻¹
